Measured values published in paper PMC6962426.

Molecular target: histidine-tagged FcγRIIIa-158V receptor
Experiment: Fcγ receptor binding assay
Details: read at the highest antibody concentration, x about 0.0014 (axis unit printed as µg/mL); parent: est. 260; read off a plot

Row | Substance | response
1 | IgG1-B (parent) N325D | 55 RU
2 | IgG1-B (parent) N325Q | 17 RU
